Measured values published in patent publication US20090010911A1, “METHODS AND COMPOSITIONS FOR AFFECTING CYCLOPHILIN A REGULATION OF KINASES IN MODULATING CELLULAR ACTIVITIES” (IOWA STATE UNIVERSITY RESEARCH FOUNDATION, INC., priority 2007, published 2009).

What was measured:
full length Itk = biological target: T1, full length Itk (Mus musculus, UniProt Q03526); experiment: In vitro Itk kinase assay using Peptide B as the substrate (initial velocities); assay type: biochemical; conditions: full length Itk
T1 construct: made in house; host or cells: Sf9 insect cells (baculovirus), co-infected 1:1 with Lck baculovirus
T1 sequence (Q03526 1-625): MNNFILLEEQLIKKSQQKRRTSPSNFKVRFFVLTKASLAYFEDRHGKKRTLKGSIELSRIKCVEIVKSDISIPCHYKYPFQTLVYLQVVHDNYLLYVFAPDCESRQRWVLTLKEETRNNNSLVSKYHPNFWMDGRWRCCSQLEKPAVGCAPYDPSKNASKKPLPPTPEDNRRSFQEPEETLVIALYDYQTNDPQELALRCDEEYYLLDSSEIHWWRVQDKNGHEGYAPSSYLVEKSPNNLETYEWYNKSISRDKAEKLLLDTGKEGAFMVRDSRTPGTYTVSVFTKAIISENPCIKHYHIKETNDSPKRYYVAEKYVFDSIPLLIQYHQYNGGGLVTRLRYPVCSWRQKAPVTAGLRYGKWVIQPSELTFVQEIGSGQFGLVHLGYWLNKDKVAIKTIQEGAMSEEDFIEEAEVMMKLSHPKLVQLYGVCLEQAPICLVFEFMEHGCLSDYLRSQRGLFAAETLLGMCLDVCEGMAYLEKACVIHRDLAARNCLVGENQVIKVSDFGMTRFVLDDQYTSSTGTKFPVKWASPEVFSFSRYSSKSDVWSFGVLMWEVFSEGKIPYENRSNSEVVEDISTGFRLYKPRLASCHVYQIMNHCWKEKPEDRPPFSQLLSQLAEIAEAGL
Description: Substrate used in each experiment is indicated above each set of blots. 4(a) (left) Itk 32 substrate was incubated with Itk full-length enzyme as before (lane 1), or with Itk 32 domain:free Itk SH2 domain in ratios of 1:10, 1:25 or 1:50 (lanes 2-4, respectively) or equivalent ratios of PI3K N-terminal SH2 domain (lanes 5-7) and subjected to an in vitro kinase assay. […] Coomassie stain and an anti-FLAG blot (bottom panels) show protein levels. (right) The PLCγ1 SH2 domain competes with the PLCγ1 substrate in a similar manner. Lane 1 contains only Itk enzyme and PLCγ1 SH2C-Y783-substrate without additional free SH2 domain. Ratios of free SH2 domain to substrate are 1:5, 1:10 or 1:50 in lanes 2-4, respectively and equivalent ratios of PI3K SH2 domain are used in lanes 5-7. Coomassie stain of the gel and an anti-Itk blot (bottom panels) show protein levels. 4(b) Same experiment as shown in (a) using the Grb2 SH2 domain as a control. (left) Itk 32 substrate was incubated with Itk full-length enzyme (lane 1), or with Itk 32 domain:free Itk SH2 domain in ratios of 1:10 and 1:25 (lanes 2 & 3) or equivalent ratios of Grb2 SH2 domain (lanes 4 & 5) and subjected to an in vitro kinase assay. […]
The ratio of CypA to Itk varied between o and 100 times excess CypA. […] No change in Peptide B phosphorylation is detected. […]

Lck kinase domain = experiment: Pull-down assay of Lck kinase domain with Itk SH2 domain; assay type: binding; conditions: anti-Myc immunoprecipitation, anti-His blot
Description: The Itk SH2 domains were immunoprecipitated using an anti-Myc antibody and the samples were western blotted with an anti-His antibody to detect the presence of the Lck kinase domain. Lanes 1 and 2 are beads alone control.
The samples were washed, boiled, resolved on an SDS-PAGE gel, transferred to PVDF membrane and western blotted with an anti-His antibody (clone HIS.H8 from Upstate). • (1) Wilcox, H. M., and Berg, L. J. (2003) Itk phosphorylation sites are required for functional activity in primary T cells. J Biol Chem 278, 37112-21. • (2) Hawkins, J., and Marcy, A. (2001) Characterization of Itk tyrosine kinase: contribution of noncatalytic domains to enzymatic activity. Protein Expr Purif 22, 211-9.

B1: Itk SH2 domain: isolated exogenous SH2 domain of Itk, purified from bacteria (protein)
chain: EWYNKSISRDKAEKLLLDTGKEGAFMVRDSRTPGTYTVSVFTKAIISENPCIKHYHIKETNDSPKRYYVAEKYVFDSIPLLIQYHQYNGGGLVTRLRYPVCSWRQKA
- levels of peptide B phosphorylation (initial velocity) with increasing concentrations of SH2 domain (full length Itk): do not change significantly
- interaction with Lck kinase domain (pull-down) (Lck kinase domain): direct interaction
